According to the RNAGym collection of RNA variant scans (doi:10.7554/elife.90254):

B1: OR4K15 (parent)
chain: GUUAACGGUCAUAGGCCAUGGAAACUAGGAGCACCAUUUCGCUGCCAGUGAAGAAAUGAACAAAGAAAAUCUGGGCCAGGCAGGCAUCAAAAGAAAUAGUCUUGCGCUCAACCAGAAAGUCUGUAAUCAUUUUAAGGGUA

Variants of: B1
Experiment: self-cleavage, relative activity (ratio to wild type); higher = more cleavage; in vitro, sequencing; the parent is a self-cleaving ribozyme

Variant	self-cleavage
A52U A90U	2.35
A52U A90G	0.38
A52U A69U	1.98
A52U A69G	2.44
U49C U70C	0.59
A52G U72A	0.4
A51C A92U	0.57
A52G A66G	1.75
A52G A66U	1.54
G50U A96G	2.5
U49C U122C	0.52
A52G A134G	1.25
G50U A52G	0.42
G50U A62C	2.27
U49C U72C	0.3
U49C U97C	1.29
G50A A92U	2.15
U49C U120G	1.33
A51G G53U	1.66
A51U G104A	0.01
A52C A89G	1.02
A51U U57C	1.58
G53U A82U	0.27
A52U A59U	1.99

Variant	self-cleavage
A51G A95U	0.89
U49C G123U	0.88
G50U G53A	2.2
A52G A63G	1.33
A51G A114U	0.08
G50A A51G	1.82
A51U A114G	0.19
A51C G73C	0
A51U U70C	0.46
A52U A96G	1.91
A51G G136U	2.08
A51G U102C	2.58
G50U A82U	0.23
G50U A125U	2.34
G53A G119U	2.11
A52G U100A	0.65
A52G U100C	2.01
U49G G83A	0.47
A52G C128U	1.26
A52U U130C	1.8
A51U A56G	0.93
U49C G83U	0.71
A51U G58A	1.56
A52U G137A	1.58

Variant	self-cleavage
A51C A62G	0.72
A52G A62U	1.2
A52G A62G	1.19
A51G A54G	0.81
A51U U122C	1.26
A51U U122A	0.74
A52U U100C	2.57
A51U A116G	0.37
A51G A52G	1.46
A51G A52U	1.49
A51G A96G	1.47
U49G U130A	0.36
A52G A116U	0.12
A52G C77A	1.2
A52G A118G	1.21
U49C C77U	2.23
A51G A86G	1.46
A52U U127C	0.98
A51U A82C	0.24
A51G U103G	0.05
A51G U103A	0.32
A51G G80A	0.36
A52G C71U	0.44
G50U U127C	1.29

Variant	self-cleavage
A52C A126G	0.42
A51G A116G	0.48
A51G A116U	0.05
G53A G75A	0.09
A52C A55U	1.72
A52U A89G	1.56
G50U A56G	1.63
A51U G106A	0.03
U49C U133C	1.76
U49C U133A	1.29
A51U A60G	0.92
A52C U127A	1.62
G50U G79A	0.11
A52G A68U	1.66
A52G A68G	1.5
A52G C121U	1.18
A52G C121G	2.33
A52C A94G	2.5
G50A C113A	0
G50U C121A	2.92
U49C A134G	1.38
G53A A54U	1.67
A52U U102A	0.36
A51C U102A	0.84

Variant	self-cleavage
A52U A98U	1.72
U49C U139C	1.71
A51G U133C	1.46
G53C U57G	0.65
A51G A78U	0.35
G53U A54U	1.67
U49C G99U	0.28
U49C U130C	0.77
A52U A125G	0.79
A51G C109U	0.4
A51G A82U	0.25
A51G A98U	2.81
U49G A62U	0.74
U49C U131C	1.11
A52G A98U	2.16
G50U U103C	1.23
A52C A62G	0.91
A51G G123A	2.08
G50A A66U	0.67
A51G A126C	0.91
A51U U87C	0.54
G53U A126G	1.4
G50A A64G	1.22
A52G U124C	1.18

Variant	self-cleavage
A52G U124A	1.03
U49C A135G	1.97
U49C A135C	0.89
A51U A126G	1.46
A52C U103A	0.98
A52U U57C	1.45
U49G U108A	0.04
A52G A95C	0.6
A51G A129U	0.76
A52U A54U	1.62
G53A A89U	2.31
A51G U139C	1.69
A52U U124G	0.84
A51U A96G	1.32
U49C U124A	0.48
A51C U108C	0.01
A52C U87C	1.09
A52G A67G	1.13
U49C U103C	1.01
A51G A91C	1.97
A51G A91G	0.5
A52G C85U	0.87
A51G A63U	1.83
A51G A63G	1.17

Variant	self-cleavage
A52C A66G	1.59
A52G G75A	0.23
A51G U130C	0.54
A51C A59G	1.73
U49C U102C	2
U49C U102A	0.53
U49G U87C	1.48
A51C A94G	2.16
A51U C128A	0.45
A52G U70A	0.45
A52G U70C	0.79
A52U U97C	0.96
A52G U57C	1.1
G53A G136U	2.03
A52G U120C	1.16
A52G A90U	1.81
A52G A90G	0.99
G53U A59G	1.26
U49C U108C	0.01
G53A U103C	0.64
U49C U87C	1.58
G53A A78U	0.52
G53A A78G	0.22
